From the nanobody polyreactivity screen of Harvey et al. (2022)

experiment: yeast display, Sf9 membrane polyspecificity reagent, FACS + sequencing; frameworks hold sequencing errors
How it was run: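 In a synthetic yeast display library (Saccharomyces cerevisiae BJ5465), nanobody expression was induced with galactose for 36–48 hours. FACS gates were set low and high (top ~1%) using anti-HA fluorescence for expression and streptavidin fluorescence for binding of the Sf9 membrane reagent. Each polyreactivity label is drawn from the gate of origin.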

Sequence	polyreactivity (PSR sort gate)
QVQLVESGGGLVQAGGSLRLSCAASGFTFRRNAMGWYRQAPGKERELVAAISSSGGSTSYADSVKGRFTISRDNAKNTVYLQMNSLKPEDTAVYYCAVEVASYDRRPSEYYWGQGTQVTVSS	high polyreactivity
QVQLVESGGGLVQAGGSLRLSCAASGFTFRRNAMGWYRQAPGKERELVASITINGGSTTYADSVKGRFTISRDNAKNTVYLQMNSLKPEDTAVYYCNKRYRTYRSVPQYEYWGQGTQVTVSS	high polyreactivity
QVQLVESGGGLVQAGGSLRLSCAASGFTFRRYAMGWYRPARGKERELVAAIRQSGGSTYADSVKGRFTISRDNAKNTVYLQMNSLKPEDTAVYYCNAGVRAVNRKYDYWGQGTQVTVSS	high polyreactivity
QVQLVESGGGLVQAGGSLRLSCAASGFTFRRYAMGWYRQAPGKERELVAAISASGGNTYYADSVKGRFTISRDNAKNTVYLQMNSLKPEDTAVYYCATDWTVRYDYWGQGTQVTVSS	high polyreactivity
QVQLVESGGGLVQAGGSLRLSCAASGFTFRSYAMGWYRQAPGKEREFVAAINGRSGSTYADSVKGRFTISRDNAKNTVYLQMNSLNPEDTAVYYCAAGQRHKNSNRPDNYWGQGSQVTVSS	high polyreactivity
QVQLVESGGGLVQAGGSLRLSCAASGFTFRVNAMGWYRQAPGKERELVAASSSGGRTYYADSVKGRFTISRDNAKNTVYLQMNSLKPEDTAVYYCNAGRVRHGNDYWGQGTQVTVSS	high polyreactivity
QVQLVESGGGLVQAGGSLRLSCAASGFTFRVYAMGGYRPAPGKERELVAAITSGSSTTYADSVKGRFTISRDNAKNTVYLQMNSLKPEDTAVYYCNARRRGRVTGSYGYWGQGTQVTVSS	high polyreactivity
QVQLVESGGGLVQAGGSLRLSCAASGFTFRVYAMGRYRQAPGKERELVAVISGTGGRTYYADSVKGRFTISRDNAKNTVYLQMNSLKPEDTAVYYCARRGRPPAIYDYWGQGTQVTVSS	high polyreactivity
QVQLVESGGGLVQAGGSLRLSCAASGFTFRVYAMGWYRQAPGKERELVAAITQRGGSTYYADSVKGRFTISRDNSKNTVYLQMNRLNTEDTAVYYCNKFAGQPTYDYWGQGTQVTVSS	high polyreactivity
QVQLVESGGGLVQAGGSLRLSCAASGFTFRVYAMGWYRQAPGKERELVAVISGTGGRTYYADSVKGRFTISRDNAKNTVYLQMNSLKPEDTAVYYCARRGRPPAIYDYWGQGTQVTVSS	high polyreactivity
QVQLVESGGGLVQAGGSLRLSCAASGFTFRWNAMGWYRQAPGKERELVAAITSRGGSTYYADSVKGRFTISRDNAKNTVYLQINSLKPEDTAVYYCARLAGIGFSYRYDYWGQGTQVTVSS	high polyreactivity
QVQLVESGGGLVQAGGSLRLSCAASGFTFRWYAMGSYRQAPGKERELVAAISSSGGSTYYADSVKGRFTISRDNAKNTVYLQMNSLKPEDTAVYYCAAASLRPYQRAYGYEYWGQGTQVTVSS	high polyreactivity
QVQLVESGGGLVQAGGSLRLSCAASGFTFRWYAMGWYRQAPGKERELVAAISVSGGSTSYADSVKGRFTISRDNAKNTVYLQMNSLKPEDTAVYYCAAVRWAGYVSDYGYWGQGTQVTVSS	high polyreactivity
QVQLVESGGGLVQAGGSLRLSCAASGFTFRYNAMGWYRQAPGKEREFVAAITVTGGSTYYADSVKGRFTISRDNAKNTVYLQMNCLKPEDTAVYYCNAYRYTSSKFGYWGQGTQVTVSS	low polyreactivity
QVQLVESGGGLVQAGGSLRLSCAASGFTFRYNAMGWYRQAPGKERELVAAISWSGGSTYYADSVKGRFTISRDNAKNTVYLQMNSLKPEDTAVYYCNRAYGYSFSLNRYDYWGQGTQVTVSS	low polyreactivity
QVQLVESGGGLVQAGGSLRLSCAASGFTFRYNTMGWYRQAPGKERELVAAISSSGGRTYYADSVKGRFTISRDNAKNTVYLQMNSLKPEDTAVYYCNAVTRESGGFDYWGQGTQVTVSS	high polyreactivity
QVQLVESGGGLVQAGGSLRLSCAASGFTFRYYAMGGYRQAPGKERELVAAITASGGSTNYADSVKGRFTISRDNAKNTVYLQMNSLKPEDTAVYYCAADVRFSYYNRYRGYSAYDNWGQGTQVTVSS	high polyreactivity
QVQLVESGGGLVQAGGSLRLSCAASGFTFRYYAMGWYRQAPGKERELVAAISWSGASTYYADSVKGRFTISRDNAKNTVYLQMNSLKPEDTAVYYCAADIPGTYYYWGQGTQVTVSS	high polyreactivity
QVQLVESGGGLVQAGGSLRLSCAASGFTFRYYAMGWYRQAPGKERELVAAISWSGGRTYYADSVKGRFTISRDNAKNTVYLQMNSLKPEDTAVYYCAADGYPYFYGDFDYWGQGTQVTVSS	high polyreactivity
QVQLVESGGGLVQAGGSLRLSCAASGFTFRYYAMGWYRQAPGKERELVASISARGGITNYADSVKGRFTISRDNAKISVYLQMNSLKPEDTAVYYCAADVFSWYGEYDYWGQGTQVTVSS	high polyreactivity
QVQLVESGGGLVQAGGSLRLSCAASGFTFRYYAMGWYRQAPGKERELVASISWSSGSTHYADSVKGRFTISRDNAKNTVYLQMNSLKPEDTAVYYCNARHRTSSMHYWGQGTQVTVSS	high polyreactivity
QVQLVESGGGLVQAGGSLRLSCAASGFTFRYYAMGWYRQAPGKEREWVAGISSRGGSTYYADSVKGRFTISRDNAKNTVYLQMNSLKPEDSAVYYCATERFLLGLGYDYWGQGTQVTVSS	high polyreactivity

Sequence	polyreactivity (PSR sort gate)
QVQLVESGGGLVQAGGSLRLSCAASGFTFRYYTMGWYRQAPGKERELVAAITWSGGSTYYADSVKGRFTISRDNAKNTVYLQMNSLKPEDTAVYYCNAYPSYVSFDYWGQGTQVTVSS	high polyreactivity
QVQLVESGGGLVQAGGSLRLSCAASGFTFRYYVMGWYRQAPGKERELVAAISQSGGSTYYADSVKGRFTISRDNAKNTVYLQMNSLKPEDTAVYYCAARLVKYFRPYDYWGQGTQVTVSS	high polyreactivity
QVQLVESGGGLVQAGGSLRLSCAASGFTFSAYDMGWYRQAPGKERELVAAISYSGGSTYYADSVKGRFTISRDTAKNTVYLQMNSLKPEDTAVYYCAADGYYTDYWGQGTQVTVSS	high polyreactivity
QVQLVESGGGLVQAGGSLRLSCAASGFTFSFYTMGWYRQAPGKERELVAAISRRGGSTYYADSVKGRFTISRDNAKNTVYLQMNSLKPEDTAVYYCATDHIPSVGVDYWGQGTQVTVSS	high polyreactivity
QVQLVESGGGLVQAGGSLRLSCAASGFTFSHNPMGWYRQAPGKERELVATITRGGGNTYYADSVKGRCTISRDNAKNTVYLQMNSLKPEDTAVYYCSAERYKRMDYWGQGTQVTVSS	low polyreactivity
QVQLVESGGGLVQAGGSLRLSCAASGFTFSHYAMGWYRQAPGKERELVAAITASGGNTYYADSVKGRFTISRDNAKNTVYLQMNSLKPEDTAVYYCNAVSLKFTRKYDYWGQGTQVTVSS	high polyreactivity
QVQLVESGGGLVQAGGSLRLSCAASGFTFSKYAMLWYRQAPGKEREFVAAISSRGGRTYYADSVKGRFTISRDNAKNTVYLQMNSLKPEDTAVYYCAVDVHLVTEYDYWGQGTQVTVSS	high polyreactivity
QVQLVESGGGLVQAGGSLRLSCAASGFTFSKYVMGWYRQAPGKERELVAAISKRGGSTYYADSVKGRFTISRDNAKNTVYLQMNSLKPEDTAVYYCAARYYLEPILEMDYWGQGTQVTVSS	high polyreactivity
QVQLVESGGGLVQAGGSLRLSCAASGFTFSNYAMGWYRQAPGKERELVAAISFRTGRTYYADSVKWRFTISRDNAKNTVFLQMNILKPEDTAVYYCAVQPYHSYLHNYWGQGTQVTVSS	high polyreactivity
QVQLVESGGGLVQAGGSLRLSCAASGFTFSNYTMGWYRQAPVKERELVARITTRGTSTYYADSVKGRFTISRDNAKNTVYLQMNSLKPEDTAVYYCNARARYPRGYEYDYWGQGTQVTVSS	high polyreactivity
QVQLVESGGGLVQAGGSLRLSCAASGFTFSRNAMGWYRQAPGKERELVAAIDSGGSTDYADSVKGRFTISRDNAKNTVYLQMNSLKPEDSAVYYCAKASSATRYVQLRQDYDYWGQGTQVTVSS	low polyreactivity
QVQLVESGGGLVQAGGSLRLSCAASGFTFSRNAMGWYRQAPGKERELVAAISSSGGSTYYADSVKGRFTISRDNAKNTVYLQMNSLKPEDTAVYYCNVDHWRRGRSDNYWGQGTQVTVSS	high polyreactivity
QVQLVESGGGLVQAGGSLRLSCAASGFTFSRNTMGWYRPAPGKERELVAAIDSTGGSTYYADSVKGRFTISRDNAKNTVYLQMNSLKPEDTAVYYCATVLPDGRVWYEGYYWGQGTQVTVSS	low polyreactivity
QVQLVESGGGLVQAGGSLRLSCAASGFTFSRNVMGWYRQAPGKERELVADITLSGASTYYADSVKGRFTISRDNAKNTVYLQMNSLKPEDTADYYCAADPYHWRWGWRHDYWGQGTQVTVSS	low polyreactivity
QVQLVESGGGLVQAGGSLRLSCAASGFTFSRYAMGWYRQAPGKERELVAVISSSGSRTYYADSVKGRFTISRDNAKNTVYLQMNSLTPEDTAVYYCAAKSYTVTGYEYWGQGTQVTVSS	high polyreactivity
QVQLVESGGGLVQAGGSLRLSCAASGFTFSSNAMGSYRQAPGKERELVAAISFNSTSTYYADSVKVRFTISRDNAKNTVYLQMNSLKPEDTAVYYCAADVPRVQSEPEYDYSGQGTQVTVSS	low polyreactivity
QVQLVESGGGLVQAGGSLRLSCAASGFTFSSYAMGWSRQAPGKERELVAAISTRGGSTYYADSVKGRFTISRDNAKNTVYLQMNSLKPEDTAVYYCATGGRGGRRYEYWGQGTQVTVSS	low polyreactivity
QVQLVESGGGLVQAGGSLRLSCAASGFTFSSYAMGWYRQAPGKERELVAAISTRGGSTYYADSVKGRFTISRDNAKNTVYLQMNSLKPEDTAVYYCATGGRGGRRYEYWGQGTQVTVSS	low polyreactivity
QVQLVESGGGLVQAGGSLRLSCAASGFTFSSYAMGWYRQAPGKERELVAAISTRGGSTYYADSVKGRFTISRDNAKNTVYLQMNSLNPEDSAVYYCAAPVNTSGDEYGYWGQGTQVTVSS	low polyreactivity
QVQLVESGGGLVQAGGSLRLSCAASGFTFSSYAMGWYRQAPGKERELVAAITWGGGRTYYADSVKGRFTISRDNAKNTVYLQINSLKPEDTAVYYCNVPQWVSIWRKNNYWGLGTQVTVSS	high polyreactivity
QVQLVESGGGLVQAGGSLRLSCAASGFTFSTYAMGWYRQAPGKERELVAAISSGDSTYADSVKGRFTISRDNAKNTVYLQMNSLKPEDTAVYYCAAYVSVPYRNYYYWGQGTQVTVSS	high polyreactivity
